What was measured:
[1] = target: apical domain of CD71 (Screen 3: 'cynomolgus apical domain of human CD71') (cynomolgus (as paragraph 454 words it; ambiguous)); experiment: primary ELISA
[2] = target: apical domain of CD71 (Screen 3: 'cynomolgus apical domain of human CD71') (cynomolgus (as paragraph 454 words it; ambiguous)); experiment: primary ELISA, RLU ratio to HSA

B1: CD71-binding FN3 domain SEQ ID NO: 237 (designed binder)
chain: MSLPAPKNLVVSRVTEDSARLSWTAPDAAFDSFEIAYFERTWFGEAIVLTVPGSERSYDLTGLKPGTEYWVQIGGVKGGDWSKPLSAIFTT
[1]
  RLU: 5.01e+06 RLU
[2]
  Apical domain:HSA: 672

B2: CD71-binding FN3 domain SEQ ID NO: 238 (designed binder)
chain: MSLPAPKNLVVSRVTEDSARLSWTAPDAAFDSFEIGYFENDYFGEAIVLTVPGSERSYDLTGLKPGTEYVVFIGGVKGGKWSAPLSAIFTT
[1]
  RLU: 6.39e+06 RLU
[2]
  Apical domain:HSA: 954

B3: CD71-binding FN3 domain SEQ ID NO: 239 (designed binder)
chain: MSLPAPKNLVVSRVTEDSARLSWTAPDAAFDSFEIVYQENSAYGEAIVLTVPGSERSYDLTGLKPGTEYWVQIGGVKGGNWSAPLSAIFTT
[1]
  RLU: 5.4e+06 RLU
[2]
  Apical domain:HSA: 442

B4: CD71-binding FN3 domain SEQ ID NO: 240 (designed binder)
chain: MSLPAPKNLVVSRVTEDSARLSWTAPDAAFDSFHIWYFEKANEGEAIPLVVPGSERSYDLTGLKPGTEYDVDIGGVKGGAWSIPLGARFTT
[1]
  RLU: 6.83e+06 RLU
[2]
  Apical domain:HSA: 71

B5: CD71-binding FN3 domain SEQ ID NO: 241 (designed binder)
chain: MSLPAPKNLVVSRVTEDSARLSWTAPDAAFDSFMIAYDEFIVWGEAVVLTVPGSERSYDLTGLKPGTEYLVEILGVKGGTISGPLSAIFTT
[1]
  RLU: 6.21e+06 RLU
[2]
  Apical domain:HSA: 324

B6: CD71-binding FN3 domain SEQ ID NO: 242 (designed binder)
chain: MSLPAPKNLVVSRVTEDSARLSWTAPDAAFDSFEIGYFENLYLGEAIVLTVPGSERSYDLTGLKPGTKYWVQIGGVKGGNWSAPLSAIFTT
[1]
  RLU: 4.84e+06 RLU
[2]
  Apical domain:HSA: 493

B7: CD71-binding FN3 domain SEQ ID NO: 243 (designed binder)
chain: MSLPAPKNLVVSRVTEDSARLSWTAPDAAFDSFFIGYLEPQPPGEAIHLYVPGSERSYDLTGLKPGTEYNVTIQGVKGGEWSAPLSAIFTT
[1]
  RLU: 4.57e+06 RLU
[2]
  Apical domain:HSA: 582

B8: CD71-binding FN3 domain SEQ ID NO: 244 (designed binder)
chain: MSLPAPKNLVVSRVTEDSARLSWTAPDAAFDSFEIGYFENLYLGEAIVLTVPGSERSYDLTGLKPGTEYVVFIGGVKGGEYSIPLSAIFTT
[1]
  RLU: 5.23e+06 RLU
[2]
  Apical domain:HSA: 630

B9: CD71-binding FN3 domain SEQ ID NO: 245 (designed binder)
chain: MSLPAPKNLVVSRVTEDSARLSWTAPDAAFDSFEISYWEHTFNGEAIILFVPGSERSYDLTGLKPGTEYYVTIGGVKGGAWSPPLWAHFTT
[1]
  RLU: 6.07e+06 RLU
[2]
  Apical domain:HSA: 610

B10: CD71-binding FN3 domain SEQ ID NO: 246 (designed binder)
chain: MSLPAPKNLVVSRVTEDSARLSWTAPDAAFDSFEIAYQELSLWGEAIVLTVPGSERSYDLTGLKPGTEYYVHIGGVKGGIWSSPLSAYFTT
[1]
  RLU: 6.18e+06 RLU
[2]
  Apical domain:HSA: 609

B11: CD71-binding FN3 domain SEQ ID NO: 247 (designed binder)
chain: MSLPAPKNLVVSRVTEDSARLSWTAPDAAFDSFEIGYFENLYLGEAIVLTVPGSERSYDLTGLKPGTEYWVQIGGVKGGEWSAPLSAIFTT
[1]
  RLU: 4.45e+06 RLU
[2]
  Apical domain:HSA: 679

B12: CD71-binding FN3 domain SEQ ID NO: 248 (designed binder)
chain: MSLPAPKNLVVSRVTEDSARLSWTAPDAAFDSFEIGYFENLYLGEAIVLTVPGSERSYDLTGLKPGTEYVVFIGGVKGGDFSPPLSAIFTT
[1]
  RLU: 5.12e+06 RLU
[2]
  Apical domain:HSA: 550

B13: CD71-binding FN3 domain SEQ ID NO: 249 (designed binder)
chain: MSLPAPKNLVVSRVTEDSARLSWTAPDAAFDSFEIGYWENAYRGEAIVLTVPGSERSYDLTGLKPGTEYVVFIGGVKGGVWSVPLSAIFTT
[1]
  RLU: 4.81e+06 RLU
[2]
  Apical domain:HSA: 556

B14: CD71-binding FN3 domain SEQ ID NO: 250 (designed binder)
chain: MSLPAPKNLVVSRVTEDSARLSWTAPDAAFDSFEIGYFENLYLGEAIVLTVPGSERSYDLTGLKPGTEYWVQIGGVNGGNWSAPLSAIFTT
[1]
  RLU: 5.11e+06 RLU
[2]
  Apical domain:HSA: 211

B15: CD71-binding FN3 domain SEQ ID NO: 251 (designed binder)
chain: MSLPAPKNLVVSRVTEDSARLSWTAPDAAFDSFEIGYFENLYLGEAIVLTVPGSERSYDLTGLKPGTEYWVQIGGVKGGNWSAPLVATFTT
[1]
  RLU: 5.1e+06 RLU
[2]
  Apical domain:HSA: 903

B16: CD71-binding FN3 domain SEQ ID NO: 253 (designed binder)
chain: MSLPAPKNLVVSRVTEDSARLSWTAPDAAFDSFDINYWENESGGEAIALFVPGSERSYDLTGLKPGTEYWVSIGGVKGGRFSEPLYARFTT
[1]
  RLU: 5.78e+06 RLU
[2]
  Apical domain:HSA: 530

B17: CD71-binding FN3 domain SEQ ID NO: 254 (designed binder)
chain: MSLPAPKNLVVSRVTEDSARLSWTAPDAAFDSFEIGYFENLYLGEAIVLWVPGSERSYDLTGLKPGTEYWVQIGGVKGGNWSAPLSAIFTT
[1]
  RLU: 5.11e+06 RLU
[2]
  Apical domain:HSA: 448

B18: CD71-binding FN3 domain SEQ ID NO: 255 (designed binder)
chain: MSLPAPKNLVVSRVTEDSARLSWTTPDAAFDSFEIAYFEIAWLGEAIVLTVPGSERSYDLTGLKPGTEYWVQIGGVKGGAYSTPLSAIFTT
[1]
  RLU: 5.41e+06 RLU
[2]
  Apical domain:HSA: 131

B19: CD71-binding FN3 domain SEQ ID NO: 256 (designed binder)
chain: MSLPVPKNLVVSRVTEDSARLSWTAPDAAFDSFEIGYFENLYLGEAIVLTVPGSERSYDLTGLKPGTEYWVQIGGVKGGNWSAPLSAIFTT
[1]
  RLU: 4.92e+06 RLU
[2]
  Apical domain:HSA: 399

B20: CD71-binding FN3 domain SEQ ID NO: 257 (designed binder)
chain: MSLPAPKNLVVSHVTEDSARLSWTAPDAAFDSFEIGYWENAYKGEAIVLTVPGSERSYDLTGLKPGTEYVVFIGGVKGGVWSVPLSAIFTT
[1]
  RLU: 5.15e+06 RLU
[2]
  Apical domain:HSA: 687

B21: CD71-binding FN3 domain SEQ ID NO: 258 (designed binder)
chain: MSLPAPKNLVVSRVTEDSARLSWTAPDAAFDSFFIGYLEPQPPGEAIVLGVPGSERSYDLTGLKPGTEYNVTIQGVKGGFPSDPLVASFTT
[1]
  RLU: 6.79e+06 RLU
[2]
  Apical domain:HSA: 302

B22: CD71-binding FN3 domain SEQ ID NO: 259 (designed binder)
chain: MSLPAPKNLVVSRVTEDSARLSWTAPDAAFDSFYIAYAEPRPDGEAILLEVPGSERSYDLTGLKPGTEYSVLIHGVKGGLLSSPLSATFTT
[1]
  RLU: 5.16e+06 RLU
[2]
  Apical domain:HSA: 411

B23: CD71-binding FN3 domain SEQ ID NO: 261 (designed binder)
chain: MSLPAPKNLVVSRVTEDSARLSWTAPDAAFDSFYIAYAEPRPDGEAILLWVPGSERSYDLTGLKPGTEYSVLIHGVKGGLLSSPLHAYFTT
[1]
  RLU: 4.57e+06 RLU
[2]
  Apical domain:HSA: 714

B24: CD71-binding FN3 domain SEQ ID NO: 262 (designed binder)
chain: MSLPAPKNLVVSRVTEDSARLSWTAPDAAFDSFFIGYLEPQPPGEVIHLFVPGSERSYDLTGLKPGTEYNVTIQGVKGGFPSDPLVASFTT
[1]
  RLU: 7.2e+06 RLU
[2]
  Apical domain:HSA: 562

B25: CD71-binding FN3 domain SEQ ID NO: 263 (designed binder)
chain: MSLPAPKNLVVSRVTEDSARLSWTAPDAAFDSFEIGYFENLYLGEAIVLTVPGSERSYDLTGLKPGTEYWVQIGGVKGGNWSSPLSAIFTT
[1]
  RLU: 5.51e+06 RLU
[2]
  Apical domain:HSA: 344

B26: CD71-binding FN3 domain SEQ ID NO: 264 (designed binder)
chain: MSLPAPKNLVVSRVTEDSARLSWTAPDAAFDSFFIGYLEPQPPGEAIALYVPGSERSYDLTGLKPGTEYNVTIQGVKGGFPSEPLVVHFTT
[1]
  RLU: 6.23e+06 RLU
[2]
  Apical domain:HSA: 549

B27: CD71-binding FN3 domain SEQ ID NO: 265 (designed binder)
chain: MSLPAPKNLVVSRVTEDSARLSWTAPDAAFDSFFIGYLEPQPPGEAISLYVPGSERSYDLTGLKPGTEYNVTIQGVKGGFPSDPLVAHFTT
[1]
  RLU: 6.76e+06 RLU
[2]
  Apical domain:HSA: 488

B28: CD71-binding FN3 domain SEQ ID NO: 266 (designed binder)
chain: MSLPAPKNLVVSRVTEDSARLSWTAPDAAFDSFFIGYLEPQPPGEAIYLLVPGSERSYDLTGLKPGTEYNVTIQGVKGGFPSLPLVATFTT
[1]
  RLU: 7.41e+06 RLU
[2]
  Apical domain:HSA: 206

B29: CD71-binding FN3 domain SEQ ID NO: 267 (designed binder)
chain: MSLPAPKNLVVSRVTEDSARLSWTAPDAAFDSFEISYWEHTFNGEAIILFVPGSERSYDLTGLKPGTEYYVTIGGVKGGAWSPPLWAEFTT
[1]
  RLU: 6.05e+06 RLU
[2]
  Apical domain:HSA: 178

B30: CD71-binding FN3 domain SEQ ID NO: 268 (designed binder)
chain: MSLPAPKNLVVSRVTEDSARLSWTAPDAAFDSFEIGYFENLYLGEAIVLTVPGSERSYDPTGLKPGTEYWVQIGGVKGGNWSAPLSAIFTT
[1]
  RLU: 5.8e+06 RLU
[2]
  Apical domain:HSA: 188

B31: CD71-binding FN3 domain SEQ ID NO: 269 (designed binder)
chain: MSLPAPKNLVVSRVTEDSARLSWTAPDAAFDSFEIGYFENDYFGEAIVLTVPGSERSYDLTGLKPGTEYVVFIGGVKGGNWSAPLSAIFTT
[1]
  RLU: 6.01e+06 RLU
[2]
  Apical domain:HSA: 481

B32: CD71-binding FN3 domain SEQ ID NO: 270 (designed binder)
chain: MSLPAPKNLVVSRVTEDSARLSWTAPDAAFDSFFIGYLEPQPPGEAIHLYVPGSERSYDLTGLKPGTEYNVTIQGVKGGFPSEPLIANSTT
[1]
  RLU: 6.3e+06 RLU
[2]
  Apical domain:HSA: 74

B33: CD71-binding FN3 domain SEQ ID NO: 271 (designed binder)
chain: MSLPAPKNLVVSRITEDSARLSWTAPDAAFDSFEIGYWENAYKGEAIVLTVPGSERSYDLTGLKPGTEYVVFIGGVKGGVWSVPLSAIFTT
[1]
  RLU: 4.94e+06 RLU
[2]
  Apical domain:HSA: 347

B34: CD71-binding FN3 domain SEQ ID NO: 272 (designed binder)
chain: MSLPAPKNLVVSRVTEDSARLSWTAPDAAFDSFEIAYGEAAYDGEAIALLVPGSERSYDLTGLKPGTEYWVQIGGVKGGNWSAPLSAIFTT
[1]
  RLU: 4.66e+06 RLU
[2]
  Apical domain:HSA: 476

B35: CD71-binding FN3 domain SEQ ID NO: 273 (designed binder)
chain: MLPAPKNLVVSRVTEDSARLSWTAPDAAFDSFEISYWEHTFNGEAIILFVPGSERSYDLTGLKPGTEYYVTIGGVKGGAWSPPLWAEFTT
[1]
  RLU: 6.05e+06 RLU
[2]
  Apical domain:HSA: 1060

B36: CD71-binding FN3 domain SEQ ID NO: 274 (designed binder)
chain: MSLPAPKNLVVSRVTEDSARLSWTAPDAAFDSFEIVYWEQVGVGEAIVLTVPGSERSYDLTGLKPGTEYWVQIGGVKGGGFSEPLSAIFTT
[1]
  RLU: 4.64e+06 RLU
[2]
  Apical domain:HSA: 581
